Assay results reported in patent US20240301429A1.
Residue numbers refer to the chain shown, from its start.

B1: NRP1 trap M (receptor)
chain: FRNDKCGDTIKIESPGYLTSPGYPHSYHPSEKCEWLIQAPDPYQRIMINFNPHFDLEDRDCKYDYVEVFDGENENGHFRGKFCGKIAPPPVVSSGPFLFIKFVSDYETHGAGFSIRYELFKRGPECSQNYTTPSGVIKSPGFPEKYPNSLECTYIVFAPKMSEIILEFESFDLEPDSNPPGGMFCRYDRLEIWDGFPDVGPHIGRYCGQKTPGRIRSSSGILSMVFYTDSAIAKEGFSANYSVLQSSVSEDFKCMEALGMESGEIHSDQITASSQYSTNWSAERSRLNYPENGWTPGEDSYREWIQVDLGLLRFVTAVGTQGAISKETKKKYYVKTYKIDVSSNGEDWITIKEGNKPVLFQGNTNPTDVVVAVFPKPLITRFVRIKPATWETGISMRFEVYGCRSGSKENLYFQG
B2: NRP1 trap Z (receptor)
chain: FRNDKCGDTIKIESPGYLTSPGYPHSYHPSEKCEWLIQAPDPYQRIMINFNPHFDLEDRDCKYDYVEVFDGENENGHFRGKFCGKIAPPPVVSSGPFLFIKFVSDYETHGAGFSIRYELFKRGPECSQNYTTPSGVIKSPGFPEKYPNSLECTYIVFAPKMSEIILEFESFDLEPDSNPPGGMFCRYDRLEIWDGFPDVGPHIGRYCGQKTPGRIRSSSGILSMVFYTDSAIAKEGFSANYSVLQSSVSEDFKCMEALGMESGEIHSDQITASSQYSTNWSAERSRLNYPENGWTPGKKSYREWIQVDLGLLRFVTAVGTQGAISKETKKKYYVKTYKIDVSSNGEDWITIKEGNKPVLFQGNTNPTDVVVAVFPKPLITRFVRIKPATWETGISMRFEVYGCKITDYPCSGMLGMVSGLISDSQITSSNQGDRNWMPENIRLVTSRSGWALPPAPHSYINEWLQIDLGEEKIVRGIIIQGGKHRENKVFMRKFKIGYSNNGSDWKMIMDDSKRKAKSFEGNNNYDTPELRTFPALSTRFIRIYPERATHGGLGLRMELLGCEVEAPTAGPTTPNGNLVDECDDDQANCHSGTGDDFQLTGGTTVLATEKPTVIDSTIQSEFPTYGFNCEFGWGSHKTFCHWEHDNHVQLKWSVLTSKTGPIQDHTGDGNFIYSQADENQKGKVARLVSPVVYSQNSAHCMTFWYHMSGSHVGTLRVKLRYQKPEEYDQLVWMAIGHQGDHWKEGRVLLHKSLKLYQVIFEGEIGKGNLGGIAVDDISINNHISQEDCAKPADLDKKNPEIKIDETGSTPGYEGEGEGDKNISRKPGNVLKTLDPRSGSKENLYFQG
B3: NRP1 trap AB (receptor)
chain: B2 chain with K298E, K299D, S325A, E327K

The binders below were run against AP-VEGF165 (human) (UniProt P15692) (assay: saturation binding, trap coated on plate, AP-VEGF165 titrated, AP chemiluminescence).
Sequence of AP-VEGF165 (human) (P15692 other isoform, or with tags, fused parts or gaps): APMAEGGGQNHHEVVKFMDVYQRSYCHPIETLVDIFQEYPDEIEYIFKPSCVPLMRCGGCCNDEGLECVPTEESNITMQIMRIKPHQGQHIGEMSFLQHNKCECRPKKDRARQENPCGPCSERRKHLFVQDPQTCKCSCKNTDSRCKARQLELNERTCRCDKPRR

| Binder | Kd [nM] |
| --- | --- |
| B1 | 20.1 |
| B2 | 67 |
| B3 | 29.5 |
